Data from US20100167314A1.

Target: human pNBC1 (pancreas-type Na/HCO3 cotransporter 1) (human), Q9Y6R1
Test: cell-based or functional assay

Sequence of human pNBC1 (pancreas-type Na/HCO3 cotransporter 1) (human), Q9Y6R1 (Q9Y6R1 whole entry): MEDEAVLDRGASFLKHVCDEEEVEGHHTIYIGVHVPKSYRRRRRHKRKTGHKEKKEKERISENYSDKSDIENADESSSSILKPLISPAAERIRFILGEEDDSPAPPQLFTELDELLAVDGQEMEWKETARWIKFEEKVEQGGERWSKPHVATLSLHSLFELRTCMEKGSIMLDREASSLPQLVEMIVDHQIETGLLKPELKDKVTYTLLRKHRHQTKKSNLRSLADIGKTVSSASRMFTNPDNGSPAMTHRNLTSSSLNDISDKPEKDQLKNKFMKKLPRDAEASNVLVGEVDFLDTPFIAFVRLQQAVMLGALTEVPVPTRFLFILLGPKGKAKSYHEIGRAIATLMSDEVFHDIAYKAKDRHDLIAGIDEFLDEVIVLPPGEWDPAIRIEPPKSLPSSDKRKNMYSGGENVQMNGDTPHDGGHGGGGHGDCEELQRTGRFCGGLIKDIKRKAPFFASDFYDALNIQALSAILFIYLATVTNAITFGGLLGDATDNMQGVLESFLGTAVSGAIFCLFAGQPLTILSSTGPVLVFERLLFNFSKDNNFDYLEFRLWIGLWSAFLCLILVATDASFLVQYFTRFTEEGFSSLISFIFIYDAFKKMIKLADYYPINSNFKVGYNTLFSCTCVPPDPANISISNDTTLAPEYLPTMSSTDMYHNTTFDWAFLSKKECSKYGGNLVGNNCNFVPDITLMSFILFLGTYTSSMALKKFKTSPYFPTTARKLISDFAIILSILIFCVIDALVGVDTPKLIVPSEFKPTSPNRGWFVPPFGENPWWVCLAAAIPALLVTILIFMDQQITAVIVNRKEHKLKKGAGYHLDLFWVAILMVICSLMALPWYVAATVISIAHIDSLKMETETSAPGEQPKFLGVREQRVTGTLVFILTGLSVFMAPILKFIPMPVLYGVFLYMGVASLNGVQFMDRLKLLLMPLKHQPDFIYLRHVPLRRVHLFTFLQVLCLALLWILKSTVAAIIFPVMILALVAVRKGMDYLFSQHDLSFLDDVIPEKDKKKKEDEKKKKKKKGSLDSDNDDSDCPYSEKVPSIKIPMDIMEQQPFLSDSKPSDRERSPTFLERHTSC

B1: mouse IRBIT (IP3 receptor-binding protein; IP3R-binding protein released with inositol 1,4,5-trisphosphate), Q80SW1 1-530 (protein)
chain: MSMPDAMPLPGVGEELKQAKEIEDAEKYSFMATVTKAPKKQIQFADDMQEFTKFPTKTGRRSLSRSISQSSTDSYSSAASYTDSSDDEVSPREKQQTNSKGSSNFCVKNIKQAEFGRREIEIAEQDMSALISLRKRAQGEKPLAGAKIVGCTHITAQTAVLIETLCALGAQCRWSACNIYSTQNEVAAALAEAGVAVFAWKGESEDDFWWCIDRCVNMDGWQANMILDDGGDLTHWVYKKYPNVFKKIRGIVEESVTGVHRLYQLSKAGKLCVPAMNVNDSVTKQKFDNLYCCRESILDGLKRTTDVMFGGKQVVVCGYGEVGKGCCAALKALGAIVYITEIDPICALQACMDGFRVVKLNEVIRQVDVVITCTGNKNVVTREHLDRMKNSCIVCNMGHSNTEIDVTSLRTPELTWERVRSQVDHVIWPDGKRVVLLAEGRLLNLSCSTVPTFVLSITATTQALALIELYNAPEGRYKQDVYLLPKKMDEYVASLHLPSFDAHLTELTDDQAKYLGLNKNGPFKPNYYRY
- current change at a membrane potential of -25 mV when ND96 solution was replaced by ND96+HCO3- solution (voltage clamp, Xenopus oocytes): 6 to 7 times
